Experimental data: the Human Domainome abundance scans (Beltran et al. 2025)
± gives the uncertainty stated by the source.

B1: RUN and FYVE domain-containing protein 1, residues 639 to 698; numbered along this chain, Q96T51 (parent)
chain: WLKDDEATHCRQCEKEFSISRRKHHCRNCGHIFCNTCSSNELALPSYPKPVRVCDSCHTL

Variants of: B1
Assay: abundance fitness (aPCA) (normalised: wild type 0, dead -1); higher = more abundant; growth selection in yeast, the domain comes from the species named
Details: Homo sapiens

Compared with S20Q, S20F is lower in abundance fitness: 0.138 ± 0.047 for the first, -0.009 ± 0.045 for the second.

S20I and S20K are within error of each other in abundance fitness: 0.028 ± 0.075 for the first, -0.018 ± 0.058 for the second.

Going from S20T to S20Y, the abundance fitness falls from 0.069 ± 0.041 to -0.195 ± 0.068.

Compared with T36Q, T36F is lower in abundance fitness: 0.403 ± 0.037 for the first, 0.208 ± 0.064 for the second.

First: T36W
Second: T36R
The abundance fitness of the first is lower: 0.168 ± 0.041 for the first, 0.351 ± 0.033 for the second.

Compared with K23G, K23F is lower in abundance fitness: -0.034 ± 0.044 for the first, -0.362 ± 0.069 for the second.

Going from K23E to C29A, the abundance fitness falls from -0.165 ± 0.065 to -1.03 ± 0.091.

Going from C29Q to C29M, the abundance fitness rises from -1.23 ± 0.18 to -0.906 ± 0.094.

Going from C29H to C29V, the abundance fitness rises from -1.25 ± 0.26 to -0.904 ± 0.07.

C29L and C29G are within error of each other in abundance fitness: -0.875 ± 0.08 for the first, -1 ± 0.075 for the second.

E16L and E16K are within error of each other in abundance fitness: -0.314 ± 0.041 for the first, -0.387 ± 0.08 for the second.

E16H and E14W are within error of each other in abundance fitness: -0.089 ± 0.1 for the first, -0.24 ± 0.055 for the second.

E14K and E14R are within error of each other in abundance fitness: -0.439 ± 0.065 for the first, -0.431 ± 0.049 for the second.

Going from R21Y to R21I, the abundance fitness rises from -0.801 ± 0.16 to -0.227 ± 0.07.

Compared with R21S, R21K is higher in abundance fitness: -0.355 ± 0.045 for the first, -0.184 ± 0.055 for the second.

Compared with R21M, R21Q is higher in abundance fitness: -0.239 ± 0.045 for the first, -0.069 ± 0.047 for the second.

First: R21C
Second: R21A
The abundance fitness of the first is lower: -1.14 ± 0.31 for the first, -0.04 ± 0.039 for the second.

Going from R21V to R21G, the abundance fitness falls from -0.054 ± 0.036 to -0.278 ± 0.047.

P48R and P48H are within error of each other in abundance fitness: -0.308 ± 0.045 for the first, -0.192 ± 0.077 for the second.

P48E and S39A are within error of each other in abundance fitness: 0.118 ± 0.051 for the first, 0.14 ± 0.041 for the second.

Compared with S39C, S39T is higher in abundance fitness: -1.14 ± 0.23 for the first, 0.084 ± 0.039 for the second.

Going from S39L to S39H, the abundance fitness falls from -0.102 ± 0.039 to -0.421 ± 0.09.

Compared with S39E, S39I is lower in abundance fitness: 0.079 ± 0.055 for the first, -0.229 ± 0.067 for the second.

S39R and N40Q are within error of each other in abundance fitness: -0.011 ± 0.039 for the first, -0.001 ± 0.053 for the second.

Going from N40Y to N40K, the abundance fitness rises from -0.906 ± 0.15 to 0.078 ± 0.056.

Going from N40R to N40P, the abundance fitness falls from 0.153 ± 0.034 to -0.387 ± 0.059.

Compared with N40L, L2T is higher in abundance fitness: -0.424 ± 0.046 for the first, -0.02 ± 0.066 for the second.

L2K and L2D are within error of each other in abundance fitness: 0.102 ± 0.071 for the first, -0.006 ± 0.093 for the second.

L2I and L2A are within error of each other in abundance fitness: -0.104 ± 0.1 for the first, 0.01 ± 0.077 for the second.

Going from G30Y to G30P, the abundance fitness falls from -0.56 ± 0.1 to -0.754 ± 0.093.

First: G30W
Second: G30N
The abundance fitness of the first is higher: -0.235 ± 0.038 for the first, -1.04 ± 0.17 for the second.

First: G30F
Second: S18A
The abundance fitness of the first is lower: -0.945 ± 0.17 for the first, -0.33 ± 0.037 for the second.

Compared with S18C, S18H is lower in abundance fitness: 0.007 ± 0.046 for the first, -0.408 ± 0.11 for the second.

Compared with S18P, S18I is higher in abundance fitness: -0.398 ± 0.056 for the first, -0.144 ± 0.057 for the second.

Compared with S18W, L60A is higher in abundance fitness: -0.322 ± 0.048 for the first, 0.036 ± 0.059 for the second.

First: L60P
Second: L60N
The abundance fitness of the first is lower: -0.404 ± 0.085 for the first, -0.126 ± 0.14 for the second.

First: L60M
Second: L60I
The abundance fitness of the first is lower: -0.194 ± 0.081 for the first, 0.094 ± 0.19 for the second.

L60H and L60Y are within error of each other in abundance fitness: -0.293 ± 0.16 for the first, -0.422 ± 0.17 for the second.

Going from I19R to I19C, the abundance fitness falls from -0.065 ± 0.045 to -1.15 ± 0.23.

Compared with I19E, I19T is lower in abundance fitness: 0.228 ± 0.067 for the first, 0.095 ± 0.042 for the second.

Going from I19A to I19W, the abundance fitness falls from -0.177 ± 0.048 to -0.846 ± 0.14.

D5K gave an abundance fitness of -0.069 ± 0.056.
